To fix the notation:
B1: HDV Ribozyme (parent)
chain: GGCCGGCAUGGUCCCAGCCUCCUCGCUGGCGCCGGCUGGGCAACAUUCCGAGGGGACCGUCCCCUCGGUAAUGGCGAAUGGGACCCA

This data set covers variants of B1. The experiment in a line: self-cleavage, relative activity (ratio to wild type); higher = more cleavage; co-transcriptional.
For the variant G39U C64U, the self-cleavage is 0.597. With G39U C64G, the self-cleavage was determined as 0.845. As to G39U A87U, the self-cleavage is 0.683. Consider U37C G80U, for which the self-cleavage was 0.224. G38U G39C: the self-cleavage is 0. In the case of G39A G40A, the self-cleavage was 0.786. For the variant G39A G40U, the self-cleavage is 0.57. In the case of G39A G40C, the self-cleavage turned out to be 0.459.

Take G38C C41G: the self-cleavage was determined as 0.406.

In the case of G39C G73C, the self-cleavage is 0.151.

As for G38A G50C, the self-cleavage stood at 0.0831.

In the case of G38U G67U, the self-cleavage amounted to 0.166. As for G38U G67A, the figure is 0.237; as for G38A U60A, 0.117; as for G39U C58A, 0.665.

Consider G40A C58G, for which the self-cleavage turned out to be 1.02. As for G39U G81C, the self-cleavage was determined as 0.119.

Regarding G39U G81U, the self-cleavage worked out at 0.185.

In the case of G39A G67A, the self-cleavage worked out at 0.453. Turning to G38A A43G, the self-cleavage amounted to 0.155. On to G38A U46A, for which the self-cleavage was found to be 0. Take G38A U46G: the self-cleavage was 0.111. Regarding G38U C63A, the self-cleavage came to 0.159. For the variant G38U C63U, the self-cleavage worked out at 0.24. Regarding G38U C63G, the self-cleavage is 0.0978.

For U37C A87C, the self-cleavage stood at 1.21.

For the variant U37C A87G, the self-cleavage was found to be 1.09.

Consider U37G G53A, for which the self-cleavage amounted to 0.147. In the case of U37G G54A it was 0.0755; in that of G38C G81C, 0.0354; in that of G38C G81U, 0.0779. With G38U G76C, the self-cleavage was determined as 0.228.

Turning to G38U G76A, the self-cleavage was 0.145.

Regarding U37C C66U, the self-cleavage came to 1.01. Consider G38C C86G, for which the self-cleavage came out at 0.217.

On to G39A A42G, for which the self-cleavage came to 0.0292.

With G39A A42U, the self-cleavage was found to be 0.272.

Turning to G39U G52C, the self-cleavage turned out to be 0.831. Regarding U37A G67C, the self-cleavage stood at 0.128. For G38U C62G, the self-cleavage was found to be 0.0831. For the variant G38U C62A, the self-cleavage was 0.317. As for G40A A71C, the figure is 0.485; as for G38A C63A, 0.0978. With G38A C63G, the self-cleavage was 0.0811. For the variant U37G A51G, the self-cleavage was 0.0639. Consider G38C C63A, for which the self-cleavage turned out to be 0.332. For the variant G38C C63G, the self-cleavage is 0.287. On to G38U A87G, for which the self-cleavage was determined as 0.16. In the case of G39A U47C, the self-cleavage was 0.208. Regarding G39U C57A, the self-cleavage is 0.941.

G39U C57U: the self-cleavage is 0.831.

For the variant G38U C66G, the self-cleavage was 0.0764.

Consider G38U G82A, for which the self-cleavage was determined as 0.0886.

Consider G38A C41G, for which the self-cleavage amounted to 0.291.

In the case of G39C U47A, the self-cleavage is 0.243.

In the case of G38C G74A, the self-cleavage was found to be 0.0936.

Turning to G40A A78C, the self-cleavage amounted to 0.233. In the case of G39U A71U, the self-cleavage was 0.431. Take U37C G55C: the self-cleavage worked out at 1.1. Regarding G38A A70G, the self-cleavage came out at 0.

G39A C85A: the self-cleavage was determined as 0.332. Take G39A C85U: the self-cleavage came to 0.465. As for U37C A45U, the figure is 0.639; as for U37G A56C, 0; as for U37G A56U, 0.0723.

As to U37C A56C, the self-cleavage was determined as 1.11.

Consider G38C C64A, for which the self-cleavage is 0.228. With G39A C63A, the self-cleavage came to 0.538. With G39A C63G, the self-cleavage worked out at 0.352. For the variant U37C A70U, the self-cleavage turned out to be 0.974. In the case of G39A G68U, the self-cleavage stood at 0.554. As for G39A G68C, the self-cleavage is 0.441. As to G38A G73C, the self-cleavage amounted to 0.13. As for G38A G73U, the self-cleavage amounted to 0.0978. As for U37G C85U, the self-cleavage is 0.161.

Take G38C U60C: the self-cleavage was 0.231. Take G38C U60A: the self-cleavage was found to be 0.38. As for U37G C48U, the figure is 0; as for G39C A77G, 0.243. For the variant G39U U65C, the self-cleavage was determined as 0.752. Take U37G U79A: the self-cleavage came to 0.

Take U37G G74U: the self-cleavage was 0.213. Turning to U37G G40U, the self-cleavage turned out to be 0.203. For G38U A71G, the self-cleavage was found to be 0.166.

Take G38U A71U: the self-cleavage was 0.222.

On to U37C U47C, for which the self-cleavage was found to be 0.791. As to U37C U47G, the self-cleavage came out at 0.8. For the variant G39C U69G, the self-cleavage turned out to be 0.133.

As for G39C G81A, the self-cleavage was found to be 0.185. With U37C G40A, the self-cleavage was 0.95.

For the variant U37C A83U, the self-cleavage came to 0.534. As for G39U C66A, the self-cleavage amounted to 0.739. Consider G39U C66G, for which the self-cleavage came out at 0.831.

Turning to U37G U46C, the self-cleavage is 0.128.

On to U37A U47G, for which the self-cleavage was determined as 0.222. In the case of U37A G52C, the self-cleavage came to 0.213. Regarding G39U G68U, the self-cleavage is 0.56.

As for G39U G68A, the self-cleavage came to 0.841.

For the variant U37G G39C, the self-cleavage turned out to be 0.185. Consider G39C G76A, for which the self-cleavage was 0.289.

With G38U U46A, the self-cleavage is 0.106. For U37A U69G, the self-cleavage turned out to be 0.369. G39C C62G: the self-cleavage came to 0.0573. U37A U65G: the self-cleavage amounted to 0.244. For G40A A70C, the self-cleavage is 0.849. As for G40A C85A, the figure is 0.859; as for G39U C85G, 0.69; as for U37C G52C, 0.856. In the case of U37A G54U it was 0.245.

With U37A G54A, the self-cleavage was 0.104.

With G38A A51G, the self-cleavage was 0.141.

Regarding G39U G80C, the self-cleavage is 0.181. For the variant G38A U72C, the self-cleavage came out at 0.108. As for U37A G82A, the figure is 0.138. For the variant U37C U46A, the self-cleavage turned out to be 0.458. Regarding G38A C61A, the self-cleavage was determined as 0.105. As to G39A A45U, the self-cleavage is 0.389.

Consider G38A A56C, for which the self-cleavage was determined as 0.13.

Regarding G38A A56U, the self-cleavage worked out at 0.218. Turning to G38U G68A, the self-cleavage is 0.163. Turning to G38C C44A, the self-cleavage was found to be 0.0354. With G39U A83G, the self-cleavage stood at 0.444. As for U37G C64A, the figure is 0.122. Regarding U37G C64G, the self-cleavage is 0.0437. Turning to U37C C63U, the self-cleavage stood at 1.11. As to G38U A83G, the self-cleavage turned out to be 0.0866. For G39U C49U, the self-cleavage was 0.649. As to G39U C49A, the self-cleavage stood at 0.604. Take G39C C49U: the self-cleavage is 0.166. As to G39C C49A, the self-cleavage is 0.237. For G38C U46G, the self-cleavage turned out to be 0.095. Turning to G38C U46C, the self-cleavage came to 0.0923. On to G39A G81C, for which the self-cleavage was 0.113. For the variant G39A U46G, the self-cleavage was found to be 0.0923. As for G39A U46C, the self-cleavage was 0.181. As for G40A C75G, the self-cleavage turned out to be 0.305. As for G40A C75A, the figure is 0.0831; as for G39A C75U, 0.178.

On to G39A C75A, for which the self-cleavage stood at 0.0755. Consider G39C U79A, for which the self-cleavage came out at 0. For G39A C86A, the self-cleavage is 0.53.

In the case of U37A G76U, the self-cleavage was found to be 0.469. Take G40A A43U: the self-cleavage was 0.446. As for G39C C44U, the figure is 0.0707; as for U37G G76C, 0.142. In the case of U37G G76U, the self-cleavage was 0.104.

As to G39A U72C, the self-cleavage turned out to be 0.135. G39U A43G: the self-cleavage was found to be 0.0811. With U37G G59C, the self-cleavage stood at 0.192. On to G39A A83C, for which the self-cleavage worked out at 0.277. As for U37A G53C, the self-cleavage was 0.162. On to G40A C61U, for which the self-cleavage was found to be 0.765. In the case of G40A C61A, the self-cleavage turned out to be 0.839. Consider G38C C58U, for which the self-cleavage was determined as 0.408. On to G39C G40C, for which the self-cleavage was found to be 0.215. As for G39C G40U, the figure is 0.487; as for G38A G55C, 0.218. In the case of G38U C84G, the self-cleavage was 0.115. In the case of G38U A42C, the self-cleavage was determined as 0.0941.

In the case of G38U C86A, the self-cleavage was 0.297. On to G39A C49G, for which the self-cleavage turned out to be 0.366. With G38C U69C, the self-cleavage was determined as 0.18.

Take G39C U65G: the self-cleavage is 0.262. Turning to G39C U65C, the self-cleavage came out at 0.374. Regarding G39U C62G, the self-cleavage stood at 0.408.

Take G39U C62A: the self-cleavage is 0.623. In the case of G38U A51U, the self-cleavage was found to be 0.308.
